The results in this text go back to paper PMC10632456, “Cryo-EM structures of human magnesium channel MRS2 reveal gating and regulatory mechanisms” (Nature Communications, 2023).

This data set concerns the molecule itself. Nature of the data set: cryo-EM structure; purified MRS2 at about 0.5 mg/ml in 20 mM HEPES, 150 mM NaCl, 40 mM MgCl2, 0.003% LMNG, pH 7.3; C5 and C1 reconstructions.

B1: human MRS2 (Mitochondrial RNA Splicing 2 magnesium channel) (natural protein, UniProt Q9HD23 71-443, looked up)
chain: TSDVSQATLASVAPVFTVTKFDKQGNVTSFERKKTELYQELGLQARDLRFQHVMSITVRNNRIIMRMEYLKAVITPECLLILDYRNLNLEQWLFRELPSQLSGEGQLVTYPLPFEFRAIEALLQYWINTLQGKLSILQPLILETLDALVDPKHSSVDRSKLHILLQNGKSLSELETDIKIFKESILEILDEEELLEELCVSKWSDPQVFEKSSAGIDHAEEMELLLENYYRLADDLSNAARELRVLIDDSQSIIFINLDSHRNVMMRLNLQLTMGTFSLSLFGLMGVAFGMNLESSLEEDHRIFWLITGIMFMGSGLIWRRLLSFLGRQLEAPLPPMMASLPKKTLLADRSMELKNSLRLDGLGSGRSILTNR
notes: MRS2, human, UniProt Q9HD23; The full-length precursor was expressed; No step that removes the tag is described; also called HsMRS2; MRS2-Mg2+
Turning to B1, the “stoichiometry N” value is 5.
